What was measured:
[1] = biological target: T1, human TNFR1-Fc fusion protein (human, UniProt P19438 29-211); assay: ELISA, human TNFR1-Fc
T1 construct: range 29-211; Made in stably transfected HEK293 cells; coated on ELISA plates or immobilised on QCM chips; also called huTNFR1-Fc; human TNFR-Fc; not shown: Fc part from vector pSecTagL1-Fc
T1 sequence (looked up): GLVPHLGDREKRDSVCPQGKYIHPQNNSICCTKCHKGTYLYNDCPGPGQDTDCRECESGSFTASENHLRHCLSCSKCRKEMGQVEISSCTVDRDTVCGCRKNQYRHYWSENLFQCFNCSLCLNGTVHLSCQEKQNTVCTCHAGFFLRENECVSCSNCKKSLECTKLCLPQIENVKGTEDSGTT

[2] = biological target: T1, human TNFR1-Fc fusion protein; assay: QCM, human TNFR1-Fc immobilised, high receptor density (195 Hz)
Method: FIG. 1. […] Applied were triplicates of five concentrations between 3.9 nM and 62.5 nM.
(§1) Real-time binding dynamics in protein-protein interactions were determined by quartz crystal microbalance measurements (A-100 C-Fast or Cell-200 C-Fast, Attana, Stockholm, Sweden). One of the binding partners (ligand, e.g. TNFR1-Fc) was chemically immobilized on a carboxyl sensor chip according to the manufacturer's protocol at different densities (nearly 200 Hz in the case of saturating conditions to confirm previously published results and 50-100 Hz, in particular at about 50 Hz, to establish conditions of lower receptor density, better resembling the situation on the cellular surface). Binding experiments were performed with samples (analyte) diluted in PBST (PBS, 0.1% Tween 20) at pH 7.4 with a flow rate of 25 µl/min at 37° C. The chip was regenerated with 25 µl 5 mM NaOH or 20 mM glycine, pH 2.0. Every third measurement, an injection of running buffer was measured which was subtracted from the binding curve. Data were collected using the software provided by Attana for the particular device and analyzed by Attaché Office Evaluation software (Attana, Stockholm, Sweden) and TraceDrawe (ridgview instruments, Vange, Sweden).

[3] = biological target: T1, human TNFR1-Fc fusion protein; assay: ELISA on coated huTNFR1-Fc, antibody titrated, signal as Binding [%]
Method: FIG. 13. […] Increasing concentrations were tested for their binding to huTNFR1-Fc in ELISA (n=3, mean±SD).
(§2) Microtiter plates were coated with 100 µl of the indicated protein (1 µg/ml in PBS, see Table 3.3) and incubated at 4° C. over night. The residual binding sites were blocked with 2% MPBS (skim milk in PBS, 200 µl per well) at room temperature for 2 hours and subsequently washed twice with PBS. 100 µl of the samples diluted in 2% MPBS were incubated at room temperature for 1 hour prior to the last incubation step with 100 µl of the HRP conjugated detection antibodies in 2% MPBS. In the case of competition experiments, both analyzed protein samples were prepared individually (either titrated or diluted to a single concentration) and mixed before they were applied to the plate. Bound protein was detected with 100 µl TMB substrate solution, the HRP-reaction was stopped by the addition of 50 µl 1 M H2SO4 and the absorption at the wavelength of 450 nm was measured using the Infinite microtiter plate reader (TECAN, Maennedorf, Switzerland). Between each incubation step and in advance of the detection, the plates were washed three times with PBST and twice with PBS.

[4] = biological target: T1, human TNFR1-Fc fusion protein; assay: QCM, human TNFR1-Fc, moderate receptor density (86 Hz), biphasic fit, kon1 (low-affinity part)
Method: as §1

[5] = biological target: T1, human TNFR1-Fc fusion protein; assay: QCM, human TNFR1-Fc, moderate receptor density (86 Hz), biphasic fit, koff1 (low-affinity part)
Method: as §1

[6] = biological target: T1, human TNFR1-Fc fusion protein; assay: QCM, human TNFR1-Fc, moderate receptor density (86 Hz), biphasic fit, kon2 (high-affinity part)
Method: as §1

[7] = biological target: T2, human TNFR2-Fc fusion protein (human, UniProt P20333 23-257); assay: ELISA on coated receptor-Fc fusion proteins, one antibody concentration (not given on the sheet)
T2 construct: whole entry named; also called huTNFR2
T2 sequence (looked up): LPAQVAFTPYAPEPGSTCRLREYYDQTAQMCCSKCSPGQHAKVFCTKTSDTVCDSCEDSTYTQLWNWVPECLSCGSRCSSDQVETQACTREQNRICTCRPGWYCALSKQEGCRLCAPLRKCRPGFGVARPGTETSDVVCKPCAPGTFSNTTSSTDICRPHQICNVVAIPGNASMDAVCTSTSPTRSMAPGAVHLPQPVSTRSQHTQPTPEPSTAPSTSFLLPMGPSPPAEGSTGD
Method: (§3) FIG. 12. Species selectivity of scFv13.7 derivatives. […] Presented are mean and SD of two individual experiments.
as §2

[8] = biological target: T3, mouse TNFR1-Fc fusion protein (mouse, UniProt P25118 30-212); assay: as above
T3 construct: range 30-212; also called moR1; not shown: Fc part from vector pSecTagL1-Fc
T3 sequence (looked up): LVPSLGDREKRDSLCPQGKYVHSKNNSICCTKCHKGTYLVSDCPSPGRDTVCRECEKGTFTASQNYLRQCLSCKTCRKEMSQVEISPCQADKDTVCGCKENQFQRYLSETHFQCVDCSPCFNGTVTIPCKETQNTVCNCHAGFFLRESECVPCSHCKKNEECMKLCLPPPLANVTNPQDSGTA
Method: as §3, §2

[9] = biological target: T4, mouse TNFR2-Fc fusion protein (mouse, UniProt P25119 23-258); assay: as above
T4 construct: range 23-258; not shown: Fc part from vector pSecTagL1-Fc
T4 sequence (looked up): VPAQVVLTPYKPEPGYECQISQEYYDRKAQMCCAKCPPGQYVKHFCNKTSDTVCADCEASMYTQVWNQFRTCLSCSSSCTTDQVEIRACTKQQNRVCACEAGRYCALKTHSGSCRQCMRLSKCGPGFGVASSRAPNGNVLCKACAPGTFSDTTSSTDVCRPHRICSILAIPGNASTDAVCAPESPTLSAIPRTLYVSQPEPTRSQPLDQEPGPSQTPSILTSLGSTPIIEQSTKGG
Method: as §3, §2

B1: ATROSAB (antibody, IgG1, V domains shown)
VH: QVQLVQSGAEVKKPGSSVKVSCKASGYTFTDFYINWVRQAPGQGLEWIGEIYPYSGHAYYNEKFKARVTITADKSTSTAYMELSSLRSEDTAVYYCARWDFLDYWGQGTTVTVSS
VL: DIVMTQSPLSLPVTPGEPASISCRSSQSLLHSNGNTYLHWYLQKPGQSPQLLIYTVSNRFSGVPDRFSGSGSGTDFTLKISRVEAEDVGVYYCSQSTHVPYTFGGGTKVEIKR
notes: Humanized full-length IgG1 with a modified Fc region deficient in mediating effector functions (made according to WO2012035141); also called full length IgG ATROSAB
For B1, the “fold weaker binding (higher EC50) compared with IgG13.7” value [1] was 1.4 fold, the “Factor (KD high density chip, ATROSAB against H398)” value [2] was 1.5 fold and the Kd [2] was 0.35 nM. For the same binder, the “EC50 (read off the curve)” value [3] was roughly 1 nM, the kon [4] was 282000 M⁻¹ s⁻¹ and the koff [5] was 0.0219 s⁻¹. For the same binder, the kon [6] was 1.06e+06 M⁻¹ s⁻¹, the binding result [7] was “no binding” and the binding result [8] was “no binding”. B1: no binding [9].
